According to US20160257710A1, “SELECTIVE INHIBITORS OF PROTEINASE 3” (INSERM (INSTITUT NATIONAL DE LA SANTÉ ET LA RECHERCHE …, priority 2013, published 2016):
Where no end group is shown, it is not given here. [ ]: non-standard residue; d: D form. AlaP = not defined here

Legend:
HNE = target: T1, HNE (Homo sapiens, UniProt P08246); assay: Residual activity of purified protease with FRET substrate in presence of increasing amounts of compound; type: biochemical
T1 sequence (P08246 30-267): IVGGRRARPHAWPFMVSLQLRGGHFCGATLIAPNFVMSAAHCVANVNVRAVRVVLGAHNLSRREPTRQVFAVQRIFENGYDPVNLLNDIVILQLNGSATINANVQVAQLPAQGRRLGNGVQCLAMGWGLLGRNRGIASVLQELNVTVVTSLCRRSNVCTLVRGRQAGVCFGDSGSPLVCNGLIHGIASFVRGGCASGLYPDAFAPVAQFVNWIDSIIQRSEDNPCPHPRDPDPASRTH
Excerpt: (§1) Phosphonate inhibitors and their biotinylated and fluorescent derivatives were synthesized, purified and controlled by mass spectrometry as reported. Their purity was checked by HPLC (data not shown). Purified Ac-Asp-Tyr-Asp-Ala^P(O—C6H4-4-Cl)2 (compound 1) and Ac-Pro-Tyr-Asp-Ala^P(O—C6H4-4-Cl)2 (compound 2) were first assayed for their inhibitory properties by measuring the residual activity of the human neutrophil serine proteases PR3, HNE and CatG in the presence of increasing amounts of each compound. We used for this purpose the FRET substrates that we developed previously for each protease (18). An almost complete inhibition of PR3 (1 nM final) was obtained after a 30 min incubation time with 20 μM of compound 1 (FIG. 1) and 0.3 μM of compound 2 (FIG. 2). Recombinant PR3K99L, […], HNE and CatG were used in the same experimental conditions. […] This emphasizes the importance of the S2 and S4 subsites to discriminate between PR3 and HNE specificities. Significant inhibition of HNE was obtained using about 100 times more Ac-Pro-Tyr-Asp-Ala^P(O—C6H4-4-Cl)2 than required to inhibit PR3. […] We confirmed this observation kinetically by measuring the second order rate constants kobs/l by competition experiments between the PR3 substrate and each inhibitor (17). As expected the second order rate constant kobs/l for compound 2 was about 100 times greater than that for compound 1 (see Table 1).

CatG [1] = target: T2, CatG (Homo sapiens, UniProt P08311); assay: as above; type: biochemical; settings: CatG 1 nM, same experimental conditions as PR3
T2 sequence (P08311 21-244): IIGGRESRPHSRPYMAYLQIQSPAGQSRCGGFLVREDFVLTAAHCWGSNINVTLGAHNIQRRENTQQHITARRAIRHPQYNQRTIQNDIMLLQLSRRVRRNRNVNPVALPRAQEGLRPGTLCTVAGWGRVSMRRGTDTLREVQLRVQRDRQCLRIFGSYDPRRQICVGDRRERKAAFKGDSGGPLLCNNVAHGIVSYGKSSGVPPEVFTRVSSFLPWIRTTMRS
Excerpt: as §1

PR3 [2] = target: T3, PR3 (Homo sapiens, UniProt P24158); assay: as above; type: biochemical; settings: PR3 1 nM final, 30 min incubation
T3 construct: in a lysate of purified human neutrophils; endogenous in cells; host or cells: purified human neutrophils (lysate)
T3 sequence (P24158 28-248): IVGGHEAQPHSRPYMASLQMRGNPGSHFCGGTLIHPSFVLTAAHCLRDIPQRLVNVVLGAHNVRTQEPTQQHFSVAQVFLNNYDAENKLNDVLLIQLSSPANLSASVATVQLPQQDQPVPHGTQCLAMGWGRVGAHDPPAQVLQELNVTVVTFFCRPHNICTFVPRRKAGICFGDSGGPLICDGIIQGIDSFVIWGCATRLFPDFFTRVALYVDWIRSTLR
Excerpt: as §1

Proteinase 3 = target: T4, Proteinase 3 (Homo sapiens, UniProt P24158); assay: Protease inhibition assay, second order rate constant kobs/[I] (method of Tian and Tsou); type: biochemical
T4 sequence (P24158 28-248): T3 sequence (P24158 28-248)
Method: The compounds of the invention are advantageously selective inhibitors of PR3. […] As described under the Examples below (see PR3 inhibition assay), and as is generally known, efficacy of particular inhibitors against a target protease, for example, recombinant human PR3, is determined by combining the target with a substrate (for example Suc-AanV-SBzI), both in the absence of the inhibitor and in the present of different concentrations of such inhibitor to be tested. Typically, the efficacy of irreversible inhibitors are measured in terms of the second order rate constant of inhibition value (11) or kobs/l. Preferred inhibitors of the invention have typically a kobs/I of more than 10 M^−1s^−1, preferably more than 100 M^−1s^−1, and more preferably of more than […].
(§2) The inactivation of proteases by substrate analog inhibitors in the presence of the substrate by competition for the enzyme-binding site, was measured by the method of Tian and Tsou (17). In this system, product formation in the presence of an irreversible inhibitor approaches an asymptote, as described by
(§3) log([P∞]−[P])=log [P∞]−0.43A[Y]t
(§4) where [P∞] is the concentration of product formed at time approaching infinity, [P] is the concentration of product at time t, [Y] is the inhibitor concentration, and A is the apparent inhibition rate constant in the presence of the substrate. A is given by
(§5) where k+0 is the rate constant for association of the inhibitor with the enzyme, K^−1 is the inverted Michaelis constant, and [S] the substrate concentration. The apparent inhibition rate constant A is the slope of a plot of log([P∞]−[P]) against t, to give the second-order rate constant of inhibition k+0

[3] = Stability of inhibitors in neutrophil lysate (preincubation before adding substrates); type: in vitro ADME, human; settings: one hour preincubation of neutrophil lysate-inhibitor mixture
Excerpt: (§6) We first studied the stability and the selectivity of compound 1, 2 and their biotinylated derivatives in a lysate of purified human neutrophils. […] Further, PR3 was selectively inactivated in the neutrophil lysate as shown by western blotting using biotinylated inhibitors.

PR3 [4] = target: T3, PR3; assay: Inhibition of PR3 in a lysate of purified human neutrophils; type: biochemical; settings: conditions as with purified proteases
Excerpt: as §6

CatG [5] = target: T2, CatG; assay: Inhibition of protease activity in crude lung secretions of patients (IPF, cystic fibrosis); type: biochemical; settings: 30 min incubation, IPF and CF samples
PR3 [6] = target: T3, PR3; assay: as above; type: biochemical; settings: 30 min incubation, IPF and CF samples
Method: Crude lung secretions of patients with chronic inflammatory disorders associating significant neutrophil recruitment (IPF, Cystic fibrosis) were used as biological material to assay the efficacy of phosphonate inhibitors. We first measured the rate of cleavage of the PR3 substrate in >3 IPF and >3 CF crude samples before and after incubation with compounds 2 and 4 (×μM final). All crude samples cleaved the PR3 substrate in the absence of inhibitor and the cleavage always occurred at the expected bond, i.e. the cleavage bond of PR3, as checked by HPLC. The PR3 concentration was in the 0.1-1 μM range in lung secretions, based on the rate of substrate hydrolysis. […] Further, the rate of PR3 inactivation in a crude biological sample […] that of purified PR3, which means that there is no adverse effect impairing the PR3 inhibition in lung secretions of patients with inflammatory disorders.

Elastase = target: T5, Elastase (Homo sapiens, UniProt P08246); assay: Protease inhibition assay, second order rate constant kobs/[I] (method of Tian and Tsou); type: biochemical; settings: n.s where no significant inhibition
T5 sequence (P08246 30-267): T1 sequence (P08246 30-267)
Method: as §2, §3, §4, §5

amount of inhibitor for significant inhibition of HNE relative to that required to inhibit PR3 (HNE): about 100 times | inhibition of HNE (HNE; HNE 1 nM, same experimental conditions as PR3): no significant inhibition | inhibition of CatG (CatG [1]): no significant inhibition | concentration giving almost complete inhibition of PR3 (PR3 [2]): 0.3 µM | Proteinase 3 kobs/[I] (Proteinase 3): 154 ± 3 M⁻¹ s⁻¹ | kobs/I relative to that of compound 1 (Proteinase 3; competition between PR3 substrate and inhibitor): about 100 times | PR3 activity in neutrophil lysate (PR3 [4]): totally inactivated | CatG activity in crude lung secretions (CatG [5]): remained unchanged | hydrolysis of PR3 substrate in crude lung secretions (PR3 [6]): total inhibition | Elastase kobs/[I] (Elastase): n.s
Substance: Ac-Pro-Tyr-Asp-Ala^P(O—C6H4-4-Cl)2 (Ac-PYD[AlaP]; not fully specified (C-terminus); printed as Ac-Pro-Tyr-Asp-Ala^P(O—C6H4-4-Cl)2; reading uncertain; also: C-terminal Ala as phosphonate analogue (Ala^P)) [Compound 2]
inhibition potential after preincubation in neutrophil lysate [3]: No loss of the inhibition potential
